Source: patent US20230391845A1, “GLP-1, GIP AND GLUCAGON RECEPTOR TRIPLE AGONISTS” (priority 2020, published 2023)
*1 amine or outer side, *2 acyl side, *3 side chain or, on linkers, in order; H or OH if unused. Where a SMILES comes first, the peptide text is derived from it. Where no end group is shown, it is not given here. Side-chain parts run from the residue outwards. [ ]: non-standard residue; d: D form. The star is where a group is joined. X1 = O=C(O)CCCCCCCCCCCCCCCCCCC(=O)NCC1CCC(C(=O)*)CC1; γGlu = O=C(O)[C@H](CCC(=O)[*:2])N[*:1]; εLys = N[C@@H](CCCCN[*:1])C(=O)[*:2]; Aib = CC(C)(N)C(=O)O

B1: Compound No. 30 (peptide)
peptide: H[Aib]HGTFTSDYSIYLEKKYA[Aib]EFVQWLLEGGPSSGAPPPS-NH2
modifications: not fully specified (residue 16); printed as H-Aib-HGTFTSDYSIYLE-K[(2S)-2-amino-6-[[(2S)-2-amino-6-[[(4S)-4-carboxy-4-(19-carboxynonadecanoylamino)butanoyl]amino]hexanoyl]amino]hexanoyl]-KYA-Aib-EFVQWLLEGGPSSGAPPPS-NH2
B2: Compound No. 33 (peptide)
peptide: H[Aib]HGTFTSDYSIYLEKKAA[Aib]EFVQWLLEGGPSSGAPPPS-NH2
modifications: not fully specified (residue 16); printed as H-Aib-HGTFTSDYSIYLE-K[(2S)-2-amino-6-[[(2S)-2-amino-6-[[(4S)-4-carboxy-4-(19-carboxynonadecanoylamino)butanoyl]amino]hexanoyl]amino]hexanoyl]-KAA-Aib-EFVQWLLEGGPSSGAPPPS-NH2

Legend:
mouse Gcg receptor [1] = target: T1, mouse Gcg receptor (Mus musculus, UniProt Q61606); experiment: In vitro functional potency (CRE luciferase; whole cells), mouse GcgR; format: cell-based; conditions: BHK cells expressing mouse Gcg receptor
T1 construct: expressed in transfected cells; host or cells: BHK cells (parent line BHKTS13) containing CRE luciferase
Experimental: (§1) The purpose of this example is to test the functional activity, or potency, of the compounds in vitro at the human and mouse GLP-1, GIP, and Gcg receptors. The in vitro functional potency is the measure of target receptor activation in a whole cell assay.
(§2) In vitro functional potency was determined by measuring the response of the target receptor in a reporter gene assay in individual cell lines. The assay was performed in stably transfected BHK cell lines that expresses one of the following G-protein coupled receptors: human GLP-1 receptor, human GIP receptor, human Gcg receptor, mouse GLP-1 receptor, mouse GIP receptor, or mouse Gcg receptor; and where each cell line contains the DNA for the cAMP response element (CRE) coupled to a promoter and the gene for firefly luciferase (CRE luciferase). When the respective receptor is activated, it results in the production of cAMP, which in turn results in expression of the luciferase protein. […] The luminescence is measured as the readout for the assay. […]
(§3) The data from the microtiter plate reader was first regressed in an Excel in order to calculate the x-axis, log scale concentrations based on the individual test compound's stock concentration and the dilutions of the assay. […] A minimum of two replicates was measured for each sample. […]

mouse GLP-1 receptor [2] = target: T2, mouse GLP-1 receptor (Mus musculus, UniProt O35659); experiment: In vitro functional potency (CRE luciferase; whole cells), mouse GLP-1R; format: cell-based; conditions: BHK cells expressing mouse GLP-1 receptor
T2 construct: expressed in transfected cells; host or cells: BHK cells (parent line BHKTS13) containing CRE luciferase
T2 sequence (O35659 22-463): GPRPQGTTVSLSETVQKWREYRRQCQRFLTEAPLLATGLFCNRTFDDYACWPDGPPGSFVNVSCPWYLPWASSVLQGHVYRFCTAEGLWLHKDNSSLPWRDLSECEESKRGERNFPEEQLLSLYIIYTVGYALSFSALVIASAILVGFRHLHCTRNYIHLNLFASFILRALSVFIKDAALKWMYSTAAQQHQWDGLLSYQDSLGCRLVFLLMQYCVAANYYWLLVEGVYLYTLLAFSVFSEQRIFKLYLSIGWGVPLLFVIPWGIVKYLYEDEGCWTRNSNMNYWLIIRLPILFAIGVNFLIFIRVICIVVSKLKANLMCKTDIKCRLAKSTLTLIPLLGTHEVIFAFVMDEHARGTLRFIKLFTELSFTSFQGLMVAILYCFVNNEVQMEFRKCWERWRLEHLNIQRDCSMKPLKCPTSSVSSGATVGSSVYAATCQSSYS
Experimental: as §1, §2, §3

mouse GIP receptor [3] = target: T3, mouse GIP receptor (Mus musculus, UniProt Q0P543); experiment: In vitro functional potency (CRE luciferase; whole cells), mouse GIPR; format: cell-based; conditions: BHK cells expressing mouse GIP receptor
T3 construct: expressed in transfected cells; host or cells: BHK cells (parent line BHKTS13) containing CRE luciferase
T3 sequence (Q0P543 19-460): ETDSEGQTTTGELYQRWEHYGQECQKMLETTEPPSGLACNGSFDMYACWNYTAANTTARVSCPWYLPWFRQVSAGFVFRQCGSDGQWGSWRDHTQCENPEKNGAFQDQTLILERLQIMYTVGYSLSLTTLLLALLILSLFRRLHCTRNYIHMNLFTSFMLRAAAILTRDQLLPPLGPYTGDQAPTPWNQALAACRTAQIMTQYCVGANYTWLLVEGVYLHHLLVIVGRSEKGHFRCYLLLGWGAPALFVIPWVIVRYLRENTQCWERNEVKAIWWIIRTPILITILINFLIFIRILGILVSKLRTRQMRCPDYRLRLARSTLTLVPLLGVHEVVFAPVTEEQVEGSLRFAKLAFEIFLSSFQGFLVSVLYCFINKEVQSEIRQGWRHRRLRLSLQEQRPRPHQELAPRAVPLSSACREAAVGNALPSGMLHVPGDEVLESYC
Experimental: as §1, §2, §3

[4] = glucagon: depending on the route of administration; cited from earlier work
human glucagon receptor = human glucagon receptor (human, UniProt P47871 26-477); experiment: cell-based or functional assay
[5] = target: human glucagon-like peptide 1 receptor (human, UniProt P43220 24-463); experiment: cell-based or functional assay
[6] = target: T4, human glucose-dependent insulinotropic polypeptide receptor (human, UniProt P48546 22-466); experiment: cell-based or functional assay
T4 sequence (looked up): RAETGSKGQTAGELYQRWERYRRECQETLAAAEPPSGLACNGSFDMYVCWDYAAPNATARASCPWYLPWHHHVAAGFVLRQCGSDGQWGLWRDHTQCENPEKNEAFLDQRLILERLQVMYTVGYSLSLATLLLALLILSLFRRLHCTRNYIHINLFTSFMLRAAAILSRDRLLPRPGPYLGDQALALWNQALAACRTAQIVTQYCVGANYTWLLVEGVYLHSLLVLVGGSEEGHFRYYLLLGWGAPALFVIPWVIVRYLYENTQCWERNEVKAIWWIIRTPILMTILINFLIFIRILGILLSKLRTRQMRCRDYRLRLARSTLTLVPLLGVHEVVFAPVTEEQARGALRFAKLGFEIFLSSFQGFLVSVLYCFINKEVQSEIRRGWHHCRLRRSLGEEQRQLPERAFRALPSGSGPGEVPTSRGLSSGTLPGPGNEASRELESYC

mouse GLP-1 receptor [7] = target: T5, mouse GLP-1 receptor (mouse, UniProt O35659 22-463); experiment: cell-based or functional assay
T5 sequence (looked up): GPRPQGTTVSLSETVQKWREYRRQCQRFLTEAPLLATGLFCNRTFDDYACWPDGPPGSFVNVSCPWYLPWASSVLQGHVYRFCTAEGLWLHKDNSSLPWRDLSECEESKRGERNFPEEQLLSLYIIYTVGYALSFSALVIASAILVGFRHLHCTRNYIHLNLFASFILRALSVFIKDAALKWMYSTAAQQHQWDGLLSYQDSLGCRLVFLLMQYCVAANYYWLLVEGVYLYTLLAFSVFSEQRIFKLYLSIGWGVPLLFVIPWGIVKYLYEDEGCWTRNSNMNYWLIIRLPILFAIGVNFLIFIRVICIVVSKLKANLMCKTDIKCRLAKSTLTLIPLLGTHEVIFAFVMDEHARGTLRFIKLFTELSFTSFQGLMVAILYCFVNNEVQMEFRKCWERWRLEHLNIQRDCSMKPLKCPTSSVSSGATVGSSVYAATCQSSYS

mouse Gcg receptor [8] = target: mouse Gcg receptor (mouse, UniProt Q61606 27-485); experiment: cell-based or functional assay
mouse GIP receptor [9] = target: T6, mouse GIP receptor (mouse, UniProt Q0P543 19-460); experiment: cell-based or functional assay
T6 sequence (looked up): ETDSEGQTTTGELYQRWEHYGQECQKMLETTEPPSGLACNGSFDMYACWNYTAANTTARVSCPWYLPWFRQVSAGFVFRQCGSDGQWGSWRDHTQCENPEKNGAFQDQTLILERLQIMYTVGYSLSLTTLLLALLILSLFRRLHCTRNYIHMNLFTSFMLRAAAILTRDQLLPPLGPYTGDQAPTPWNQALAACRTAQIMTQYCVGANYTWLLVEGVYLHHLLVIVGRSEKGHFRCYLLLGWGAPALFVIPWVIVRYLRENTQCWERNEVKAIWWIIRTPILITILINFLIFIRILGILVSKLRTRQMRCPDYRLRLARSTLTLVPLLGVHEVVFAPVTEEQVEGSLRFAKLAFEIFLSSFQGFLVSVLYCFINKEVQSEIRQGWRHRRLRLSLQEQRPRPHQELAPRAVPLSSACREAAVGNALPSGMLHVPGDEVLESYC

Chain of human glucagon receptor (P47871 26-477): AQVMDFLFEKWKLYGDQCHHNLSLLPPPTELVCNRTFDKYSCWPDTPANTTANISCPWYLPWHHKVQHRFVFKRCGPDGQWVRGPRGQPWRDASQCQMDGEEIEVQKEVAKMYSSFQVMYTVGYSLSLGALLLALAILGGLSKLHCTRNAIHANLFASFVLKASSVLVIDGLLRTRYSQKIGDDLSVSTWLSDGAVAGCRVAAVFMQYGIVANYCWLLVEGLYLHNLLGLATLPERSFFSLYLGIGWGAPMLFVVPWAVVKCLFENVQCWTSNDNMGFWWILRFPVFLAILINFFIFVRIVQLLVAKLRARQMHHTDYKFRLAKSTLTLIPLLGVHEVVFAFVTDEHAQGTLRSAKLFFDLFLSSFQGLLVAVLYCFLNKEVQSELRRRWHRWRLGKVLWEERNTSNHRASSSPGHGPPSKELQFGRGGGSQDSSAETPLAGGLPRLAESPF
Chain of mouse Gcg receptor (mouse, UniProt Q61606 27-485) (Q61606 27-485): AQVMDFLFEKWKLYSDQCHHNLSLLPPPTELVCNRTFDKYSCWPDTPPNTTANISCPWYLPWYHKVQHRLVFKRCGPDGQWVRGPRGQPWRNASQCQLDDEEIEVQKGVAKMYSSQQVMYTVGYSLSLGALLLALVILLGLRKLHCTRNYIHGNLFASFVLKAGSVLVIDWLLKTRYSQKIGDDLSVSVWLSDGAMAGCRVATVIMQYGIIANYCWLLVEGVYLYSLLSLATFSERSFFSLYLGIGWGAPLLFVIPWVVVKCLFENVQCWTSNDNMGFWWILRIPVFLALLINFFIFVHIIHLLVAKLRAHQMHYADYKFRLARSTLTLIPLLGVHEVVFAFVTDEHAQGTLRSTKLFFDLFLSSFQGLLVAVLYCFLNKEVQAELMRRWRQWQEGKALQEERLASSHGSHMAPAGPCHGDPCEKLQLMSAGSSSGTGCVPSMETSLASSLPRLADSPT
T1 sequence (Q61606 27-485): as above

Row | Molecule | mGcgR CRE Luc EC50 (pM) (mouse Gcg receptor [1]) | mGLP-1R CRE Luc EC50 (pM) (mouse GLP-1 receptor [2]) | mGIPR CRE Luc EC50 (pM) (mouse GIP receptor [3]) | half-life as measured in man [4] | hGcgR CRE Luc EC50 (pM) (human glucagon receptor) | hGLP-1R CRE Luc EC50 (pM) [5] | hGIPR CRE Luc EC50 (pM) [6] | mGLP-1R CRE Luc EC50 (pM) (mouse GLP-1 receptor [7]) | mGcgR CRE Luc EC50 (pM) (mouse Gcg receptor [8]) | mGIPR CRE Luc EC50 (pM) (mouse GIP receptor [9])
1 | CC[C@H](C)[C@H](NC(=O)[C@H](CO)NC(=O)[C@H](Cc1ccc(O)cc1)NC(=O)[C@H](CC(=O)O)NC(=O)[C@H](CO)NC(=O)[C@@H](NC(=O)[C@H](Cc1ccccc1)NC(=O)[C@@H](NC(=O)CNC(=O)[C@H](Cc1c[nH]cn1)NC(=O)C(C)(C)NC(=O)[C@@H](N)Cc1c[nH]cn1)[C@@H](C)O)[C@@H](C)O)C(=O)N[C@@H](Cc1ccc(O)cc1)C(=O)N[C@@H](CC(C)C)C(=O)N[C@@H](CCC(=O)O)C(=O)N[C@@H](CCCCNC(=O)[C@@H](N)CCCCNC(=O)[C@@H](N)CCCCNC(=O)CC[C@H](NC(=O)C1CCC(CNC(=O)CCCCCCCCCCCCCCCCCCC(=O)O)CC1)C(=O)O)C(=O)N[C@@H](CCC(N)=O)C(=O)N[C@@H](C)C(=O)N[C@@H](C)C(=O)NC(C)(C)C(=O)N[C@@H](CCC(=O)O)C(=O)N[C@@H](Cc1ccccc1)C(=O)N[C@H](C(=O)N[C@@H](CCC(N)=O)C(=O)N[C@@H](Cc1c[nH]c2ccccc12)C(=O)N[C@@H](CC(C)C)C(=O)N[C@@H](CC(C)C)C(=O)N[C@@H](CCC(=O)O)C(=O)NCC(=O)NCC(=O)N1CCC[C@H]1C(=O)N[C@@H](CO)C(=O)N[C@@H](CO)C(=O)NCC(=O)N[C@@H](C)C(=O)N1CCC[C@H]1C(=O)N1CCC[C@H]1C(=O)N1CCC[C@H]1C(=O)N[C@@H](CO)C(N)=O)C(C)C (stereo partly shown) [Compound No. 21] (H-H[Aib]HGTFTSDYSIYLEK([εLys-εLys-γGlu-X1])QAA[Aib]EFVQWLLEGGPSSGAPPPS-NH2; N-terminus assumed) | reduced | similar | similar | – | – | – | – | – | – | –
2 | CC[C@H](C)[C@H](NC(=O)[C@H](CO)NC(=O)[C@H](Cc1ccc(O)cc1)NC(=O)[C@H](CC(=O)O)NC(=O)[C@H](CO)NC(=O)[C@@H](NC(=O)[C@H](Cc1ccccc1)NC(=O)[C@@H](NC(=O)CNC(=O)[C@H](CCC(=O)O)NC(=O)[C@H](C)NC(=O)[C@@H](N)Cc1ccc(O)cc1)[C@@H](C)O)[C@@H](C)CC)C(=O)N[C@@H](C)C(=O)N[C@@H](CCSC)C(=O)N[C@@H](CC(=O)O)C(=O)N[C@@H](CCCCN)C(=O)N[C@H](C(=O)N[C@@H](Cc1c[nH]cn1)C(=O)N[C@@H](CCC(N)=O)C(=O)N[C@@H](CCC(N)=O)C(=O)N[C@@H](CC(=O)O)C(=O)N[C@@H](Cc1ccccc1)C(=O)N[C@H](C(=O)N[C@@H](CC(N)=O)C(=O)N[C@@H](Cc1c[nH]c2ccccc12)C(=O)N[C@@H](CC(C)C)C(=O)N[C@@H](CC(C)C)C(=O)N[C@@H](C)C(=O)N[C@@H](CCC(N)=O)C(=O)N[C@@H](CCCCN)C(=O)NCC(=O)N[C@@H](CCCCN)C(=O)N[C@@H](CCCCN)C(=O)N[C@@H](CC(N)=O)C(=O)N[C@@H](CC(=O)O)C(=O)N[C@@H](Cc1c[nH]c2ccccc12)C(=O)N[C@@H](CCCCN)C(=O)N[C@@H](Cc1c[nH]cn1)C(=O)N[C@@H](CC(N)=O)C(=O)N[C@H](C(=O)N[C@H](C(=O)N[C@@H](CCC(N)=O)C(=O)O)[C@@H](C)O)[C@@H](C)CC)C(C)C)[C@@H](C)CC [hGIP, Native Human GIP] | – | – | – | 5 to 7 min | – | – | – | – | – | –
3 | B1 | – | – | – | – | 9.3 pM | 3.9 pM | 15.6 pM | 2.6 pM | 5.7 pM | 11.2 pM
4 | B2 | – | – | – | – | 13.7 pM | 3.3 pM | 7.3 pM | 2.2 pM | 8.1 pM | 10 pM
5 | H[Aib]HGTFTSDYSIYLEKQAA[Aib]EFVQWLLEGGPSSGAPPPS-NH2 (not fully specified (residue 16)) [Compound No. 21] | – | – | – | – | 26.6 pM | 3 pM | 3.2 pM | 2.9 pM | 56.1 pM | 9.8 pM
